Laboratory results as given in the supplement of paper PMC9170038.

System: MS2 coat protein
Test: apparent KD of MS2 coat protein; designed switch direction (-1 OFF switch, 1 ON switch): -1; higher = weaker reporter binding
Outline: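 Normalised cluster fluorescence was curve-fitted, and each design's median over clusters is its apparent KD. Before this, SNAP-549-labelled MS2 coat protein was titrated from 0.7 or 1.5 nM, doubling to 3 µM, over RNA switches transcribed on Illumina chips by stalled E. coli RNA polymerase. Titrations had no input, 200 uM small-molecule ligand, or an oligonucleotide input, and steps lasted 0.8–1.5 h (lowest) to 10–20 min (highest).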

[1] = Eterna round: R95, input ligand: microRNA oligo, concentration not stated
[2] = input ligand: microRNA oligo, concentration not stated

Row | Sequence | apparent KD of MS2 coat protein (input ligand: FMN 200 uM) | apparent KD of MS2 coat protein (input ligand: none) | apparent KD of MS2 coat protein (Eterna round: R95, input ligand: FMN 200 uM) | apparent KD of MS2 coat protein [1] | apparent KD of MS2 coat protein (Eterna round: R95, input ligand: none) | apparent KD of MS2 coat protein [2]
1 | GUCAAACAUGAGGAUCACCCAUGUGAGGAUAUUUAGGAUAGGAUAUGACUACUACUCCGAAGAAGGCACUCGGG [Eternabot (L1) Solution 7] (Eterna round: R97, puzzle: Exclusion 1) | 0.102 µM | 0.0385 µM | – | – | – | –
2 | GUCACAUGGACAUAGGAUCACAUGAGGAUCACCCAUGUGACUAACAAGCUUUUUGUUCGUCUUAUGUCUAUGUGAAA [Stov1/16-B1] (Eterna round: R97, puzzle: Sensor, turn-off variant 1) | 0.0135 µM | 0.0116 µM | – | – | – | –
3 | GUCACUAGAGGAUAUACAAUGGUAUAUGAUCCUAGAGACAAACAUGAGGAUCACCCAUGUAGAAGGCUAGUAAU [Exclusion 2 - 3] (puzzle: Exclusion 2) | – | – | 0.0238 µM | 0.178 µM | 0.123 µM | –
4 | GUCAGACGAGGAUAUGAUGUCAAAGACAUGAGGAUCACCCAUGUGAUCAAUUAAUUAAGAUCAGAAGGCGUCUGAC [E5/2-A3] (Eterna round: R97, puzzle: Exclusion 5) | 0.172 µM | 0.222 µM | – | – | – | –
5 | GUCAGCUCGUCAGGAUAUGCACAUGAGGAUCACCCAUGUAAGAUCAAGCUGCUUCGGCAGCAAGUGCAGAAGGGACGAGCUGAC [ENG2/9-B1] (Eterna round: R96, puzzle: Exclusion NG 2) | 0.161 µM | 0.14 µM | – | – | – | 0.229 µM
6 | GUCAGCUCGUGAGGAUAUACAUGAGGAUCACCCAUGUGAUCAAUAGCAGCUUCGGCUGCAAUAAUGUAGAAGGCACGAGCUGAC [ENG2/8-C] (Eterna round: R96, puzzle: Exclusion NG 2) | 0.0605 µM | 0.144 µM | – | – | – | 0.0762 µM
7 | GUCAGCUCGUGAGGAUAUACAUGAGGAUCACCCAUGUGAUCAAUAGCAGCUUCGGCUGCAUUAAUGUAGAAGGCACGAGCUGAC [ENG2/5-A1] (Eterna round: R96, puzzle: Exclusion NG 2) | 0.0618 µM | 0.152 µM | – | – | – | 0.0222 µM
8 | GUCAGCUCGUGAGGAUAUACAUGAGGAUCACCCAUGUGAUCAAUAGCAGCUUCGGCUGCAUUAAUGUAGAAGGUACGAGCUGAC [ENG2/5-C1] (Eterna round: R96, puzzle: Exclusion NG 2) | 0.0652 µM | 0.7 µM | – | – | – | 0.111 µM
9 | GUCAGCUCGUGAGGAUAUAUAUAUACAUGAGGAUCACCCAUGUUAGAUCAGCUUCGGCAGUAUAUAUAGAAGGCACGAGCUGAC [ENG2/15-A1] (Eterna round: R96, puzzle: Exclusion NG 2) | 0.345 µM | 0.0876 µM | – | – | – | 0.0789 µM
10 | GUCAGUAUAUAACAAGCAUACAUGAGGAUCACCCAUGUGCGCGGAAAGCGUUUCCGCGCAUAUCGUUCCUAGCUCGG [Eternabot (Original) Solution 14] (Eterna round: R97, puzzle: Sensor, turn-off variant 1) | 0.419 µM | 0.505 µM | – | – | – | –
11 | GUCAUCAAACAUGGGAUAAACAUGAGGAUCACCCAUGUAUACAAGUUUUUUGCUCGUCUUAUAAUAAGUUUGAUGAC [Antenna 6 - Jieux - Sensor, turn-off variant 1] (Eterna round: R97, puzzle: Sensor, turn-off variant 1) | 0.0164 µM | 0.0153 µM | – | – | – | –
12 | GUCAUCAAACAUGGGAUCAACAUGAGGAUCACCCAUGUUGACAAGUUUUUUGCUCGUCUUAUAAUACGUUUGAUGAC [Mod-Jx] (Eterna round: R97, puzzle: Sensor, turn-off variant 1) | 0.0162 µM | 0.0155 µM | – | – | – | –
13 | GUCCGGCGUGUAGGAUAUGGUUCCGUUUCGGUUCCAGAAGGACAUGAGGAUCACCCAUGUGCCUGUCGUCGGUCGUCACCGGGC [salish99_ExNG1_r04_220] (Eterna round: R96, puzzle: Exclusion NG 1) | 0.0195 µM | 0.0148 µM | – | – | – | 0.0103 µM
14 | GUCGGGCGUGUCAGGAUAUGGUAGAGUGGUCGCGGCCAGAAGGGACAUGAGGAUCACCCAUGUUCCGUGGGCAG [BmEX4 C.11] (Eterna round: R97, puzzle: Brourd's mod of Exclusion 4) | 0.019 µM | 0.0199 µM | – | – | – | –
15 | GUCGUACAUGAGGAUCACCCAUGUGAGGAUAUGAGUGGUGCUGCUAGGUAGUAUAGACUCAGAAGGCGCAUGAU [Malcxlusion 2 - Jieux - Exclusion 1] (Eterna round: R97, puzzle: Exclusion 1) | 0.25 µM | 0.0915 µM | – | – | – | –
16 | GUCGUGAGACAGGAUAUCCAAUCUAAACACGAGGGAGAAGGGUCUACAUGAGGAUCACCCAUGUGGUCUCAAAA [Aonondiin] (puzzle: Exclusion 6) | – | – | – | 0.0172 µM | – | –
